Measurements taken from the supplement of paper PMC10567573.

B1: FAM50A (parent)
chain: KALEILRKDFSELRSAGVEQLMYI
B2: TRAF3IP2 (parent)
chain: FMEKRNQWLVSQLSAASPDTGHDS

Variants of: B1
Assay: protein stability index of a GFP-peptide fusion (GPS, HEK-293T) (PSI 1-6); higher = more stable
Conditions: c terminus: a fixed tail appended
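Note: lentivirally expressed fusions sorted by FACS into six bins by GFP to DsRed ratio, PSI derived from sequencing read proportions per bin multiplied by bin number.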

| Variant | protein stability index |
| --- | --- |
| KALEILRKEFSELRSAGVEQLMYI | 3.81 |
| KALEILRKCFSELRSAGVEQLMYI | 2.89 |
| KALEILRKAFSELRSAGVEQLMYI | 2.4 |
| KALEILRKMFSELRSAGVEQLMYI | 2.56 |
| KALEILRKVFSELRSAGVEQLMYI | 2.25 |
| KALEILRKLFSELRSAGVEQLMYI | 1.57 |
| KALEILRKFFSELRSAGVEQLMYI | 2.6 |
| KALEILRKSFSELRSAGVEQLMYI | 3.85 |
| KALEILRKQFSELRSAGVEQLMYI | 1.2 |
| KSLEILRKDFSELRSAGVEQLMYI | 2.96 |
| KRLEILRKDFSELRSAGVEQLMYI | 3.76 |
| KHLEILRKDFSELRSAGVEQLMYI | 1.48 |
| KKLEILRKDFSELRSAGVEQLMYI | 1.75 |
| KFLEILRKDFSELRSAGVEQLMYI | 2.4 |
| KNLEILRKDFSELRSAGVEQLMYI | 1.04 |
| KDLEILRKDFSELRSAGVEQLMYI | 3.3 |
| KLLEILRKDFSELRSAGVEQLMYI | 1.15 |
| KCLEILRKDFSELRSAGVEQLMYI | 4.79 |
| KPLEILRKDFSELRSAGVEQLMYI | 1.95 |
| KWLEILRKDFSELRSAGVEQLMYI | 2.73 |
| KVLEILRKDFSELRSAGVEQLMYI | 1.49 |
| KALEILRKDFHELRSAGVEQLMYI | 2.97 |
| KALEILRKDFRELRSAGVEQLMYI | 2.76 |
| KALEILRKDFDELRSAGVEQLMYI | 1.6 |
| KALEILRKDFYELRSAGVEQLMYI | 1.21 |
| KALEILRKDFIELRSAGVEQLMYI | 3.09 |

| Variant | protein stability index |
| --- | --- |
| KALEILRKDFEELRSAGVEQLMYI | 2.51 |
| KALEILRKDFSQLRSAGVEQLMYI | 3.76 |
| KALEILRKDFSNLRSAGVEQLMYI | 3.69 |
| KALEILRKDFSALRSAGVEQLMYI | 2.97 |
| KALEILRKDFSLLRSAGVEQLMYI | 2.09 |
| KALEIQRKDFSELRSAGVEQLMYI | 2.51 |
| KALEISRKDFSELRSAGVEQLMYI | 2.27 |
| KALEINRKDFSELRSAGVEQLMYI | 1.74 |
| KALEIARKDFSELRSAGVEQLMYI | 1.41 |
| KALEIFRKDFSELRSAGVEQLMYI | 2.24 |
| KALEIKRKDFSELRSAGVEQLMYI | 1.09 |
| KALEIGRKDFSELRSAGVEQLMYI | 1.57 |
| KALEIHRKDFSELRSAGVEQLMYI | 1.55 |
| KALEIVRKDFSELRSAGVEQLMYI | 2.36 |
| KALEIDRKDFSELRSAGVEQLMYI | 2 |
| KALEIRRKDFSELRSAGVEQLMYI | 1.89 |
| KALEIPRKDFSELRSAGVEQLMYI | 2.03 |
| KALEIERKDFSELRSAGVEQLMYI | 2.13 |
| KALEITRKDFSELRSAGVEQLMYI | 1.85 |
| NALEILRKDFSELRSAGVEQLMYI | 1.86 |
| MALEILRKDFSELRSAGVEQLMYI | 3.33 |
| VALEILRKDFSELRSAGVEQLMYI | 1.18 |
| EALEILRKDFSELRSAGVEQLMYI | 1.88 |
| PALEILRKDFSELRSAGVEQLMYI | 2.04 |
| DALEILRKDFSELRSAGVEQLMYI | 1.28 |
| YALEILRKDFSELRSAGVEQLMYI | 3.42 |

| Variant | protein stability index |
| --- | --- |
| AALEILRKDFSELRSAGVEQLMYI | 3.07 |
| TALEILRKDFSELRSAGVEQLMYI | 1.91 |
| QALEILRKDFSELRSAGVEQLMYI | 1.78 |
| KATEILRKDFSELRSAGVEQLMYI | 1.84 |
| KACEILRKDFSELRSAGVEQLMYI | 3.15 |
| KAKEILRKDFSELRSAGVEQLMYI | 2.58 |
| KAPEILRKDFSELRSAGVEQLMYI | 2.77 |
| KANEILRKDFSELRSAGVEQLMYI | 1.5 |
| KADEILRKDFSELRSAGVEQLMYI | 1.73 |
| KAMEILRKDFSELRSAGVEQLMYI | 2.02 |
| KAHEILRKDFSELRSAGVEQLMYI | 1.57 |
| KAREILRKDFSELRSAGVEQLMYI | 2.52 |
| KALECLRKDFSELRSAGVEQLMYI | 2.39 |
| KALEFLRKDFSELRSAGVEQLMYI | 1.5 |
| KALEKLRKDFSELRSAGVEQLMYI | 1.69 |
| KALEYLRKDFSELRSAGVEQLMYI | 2.52 |
| KALEMLRKDFSELRSAGVEQLMYI | 3.79 |
| KALEPLRKDFSELRSAGVEQLMYI | 1.78 |
| KALEWLRKDFSELRSAGVEQLMYI | 2.75 |
| KALEHLRKDFSELRSAGVEQLMYI | 3.56 |
| KALETLRKDFSELRSAGVEQLMYI | 2.4 |
| KALEDLRKDFSELRSAGVEQLMYI | 1.55 |
| KALEILRKDHSELRSAGVEQLMYI | 3.24 |
| KALEILRKDASELRSAGVEQLMYI | 1.74 |
| KALEILRKDMSELRSAGVEQLMYI | 2.52 |
| KALEILRKDVSELRSAGVEQLMYI | 3.72 |

| Variant | protein stability index |
| --- | --- |
| KALEILRKDNSELRSAGVEQLMYI | 2.32 |
| KALKILRKDFSELRSAGVEQLMYI | 2.34 |
| KALDILRKDFSELRSAGVEQLMYI | 1.62 |
| KALIILRKDFSELRSAGVEQLMYI | 2.76 |
| KALPILRKDFSELRSAGVEQLMYI | 2.74 |
| KALVILRKDFSELRSAGVEQLMYI | 2.21 |
| KALFILRKDFSELRSAGVEQLMYI | 3.86 |
| KALEILPKDFSELRSAGVEQLMYI | 2.28 |
| KALEILLKDFSELRSAGVEQLMYI | 3.87 |
| KALEILSKDFSELRSAGVEQLMYI | 2.59 |
| KALEILAKDFSELRSAGVEQLMYI | 1.25 |
| KALEILFKDFSELRSAGVEQLMYI | 3.25 |
| KALEILHKDFSELRSAGVEQLMYI | 2.58 |
| KALEILEKDFSELRSAGVEQLMYI | 1.54 |
| KALEILIKDFSELRSAGVEQLMYI | 2.18 |
| KALEILTKDFSELRSAGVEQLMYI | 2.91 |
| KALEILRIDFSELRSAGVEQLMYI | 2.27 |
| KALEILRNDFSELRSAGVEQLMYI | 3.03 |
| KALEILRFDFSELRSAGVEQLMYI | 3.19 |
| KALEILRRDFSELRSAGVEQLMYI | 4.36 |
| KALEILRDDFSELRSAGVEQLMYI | 2.16 |
| KALEILRLDFSELRSAGVEQLMYI | 4.84 |
| KALEILRGDFSELRSAGVEQLMYI | 3.52 |
| KALEILRWDFSELRSAGVEQLMYI | 3.31 |

Variants of: B2
Assay: as above
Conditions: c terminus: a fixed tail appended

| Variant | protein stability index |
| --- | --- |
| FMEKRNQWLVSQLSAASPDTGPDS | 2.94 |
| FMEKRNQWLVSQLSAASPDTGSDS | 2.33 |
| FMEKRNQWLVSQLSAASPDTGQDS | 2.75 |
| FMEKRNQWLVSQLSAASPDTGRDS | 1.82 |
| FMEKRNQWLVSQLSAASPDTGTDS | 3.27 |
| FMEKRNQWLVSQLSAASPDTGYDS | 1.94 |
| FMEKRNQWLVSQLSAASPDTGADS | 3.18 |
| FMEKRNQWLVSQLSAASPDTGWDS | 2.05 |
| FMEKRNQWLVSQLSAASPDTGNDS | 2.59 |
| FMEKRNQWLVSQLSAASPDTGDDS | 2.87 |
| FMEKRNQWLVSQLSAASPDTGFDS | 2.4 |
| FMEKRNQWLVSQLSAASPDTGCDS | 2.8 |
| FMEKRNQWLVSQLSAASPDTGKDS | 2.39 |
| FMEKRNQWLVSQLSAASPDTGLDS | 2.29 |
| FMEKRNQWLVSQLSAASPDTGEDS | 3.38 |
| FMEKRNQWLVSQLSAASPDTGIDS | 1.95 |
| FMEKRNQWLVSQLSAASPDTGMDS | 2.15 |
| FMEKRNQWLVSQLSAASPDTGGDS | 2.01 |
| FMEKRNQWLVSQLSAASPDTGHDK | 1.81 |
| FMEKRNQWLVSQLSAASPDTGHDV | 2.29 |
| FMEKRNQWLVSQLSAASPDTGHDY | 2.04 |
| FMEKRNQWLVSQLSAASPDTGHDN | 2.68 |

| Variant | protein stability index |
| --- | --- |
| FMEKRNQWLVSQLSAASPDTGHDA | 2.4 |
| FMEKRNQWLVSQLSAASPDTGHDP | 2.68 |
| FMEKRNQWLVSQLSAASPDTGHDI | 2.1 |
| FMEKRNQWLVSQLSAASPDTGHDM | 2.09 |
| FMEKRNQWLVSQLSAASPDTGHDF | 2.15 |
| FMEKRNQWLVSQLSAASPDTGHDD | 2.45 |
| FMEKRNQWLVSQLSAASPDTGHDW | 2 |
| FMEKRNQWLVSQLSAASPDTGHDT | 2.41 |
| FMEKRNQWLVSQLSAASPDTGHDH | 2.26 |
| FMEKRNQWLVSQLSAASPDTGHDQ | 2.85 |
| FMEKRNQWLVSQLSAASPDTGHDR | 2.48 |
| FMEKRNQWLVSQLSAASPDTGHDC | 2.61 |
| FMEKRNQWLVSQLSAASPDTGHDE | 3.68 |
| FMEKRNQWLVSQLSAASPDTGHDG | 3.22 |
| FMEKRNQWLVSQLSAASPDTGHDL | 2.22 |
| FMEKRNQWLVSQLSAASPDTGHYS | 1.75 |
| FMEKRNQWLVSQLSAASPDTGHVS | 2.71 |
| FMEKRNQWLVSQLSAASPDTGHHS | 2.47 |
| FMEKRNQWLVSQLSAASPDTGHQS | 2.44 |
| FMEKRNQWLVSQLSAASPDTGHNS | 2.08 |
| FMEKRNQWLVSQLSAASPDTGHCS | 1.73 |
| FMEKRNQWLVSQLSAASPDTGHLS | 1.81 |

| Variant | protein stability index |
| --- | --- |
| FMEKRNQWLVSQLSAASPDTGHAS | 2.49 |
| FMEKRNQWLVSQLSAASPDTGHSS | 2.69 |
| FMEKRNQWLVSQLSAASPDTGHFS | 2.22 |
| FMEKRNQWLVSQLSAASPDTGHRS | 2.07 |
| FMEKRNQWLVSQLSAASPDTGHKS | 1.6 |
| FMEKRNQWLVSQLSAASPDTGHES | 2.49 |
| FMEKRNQWLVSQLSAASPDTGHIS | 1.65 |
| FMEKRNQWLVSQLSAASPDTGHPS | 2.21 |
| FMEKRNQWLVSQLSAASPDTGHTS | 2.57 |
| FMEKRNQWLVSQLSAASPDTGHGS | 2.11 |
| FMEKRNQWLVSQLSAASPDTGHMS | 2.12 |
| FMEKRNQWLVSQLSAASPDKGHDS | 2.47 |
| FMEKRNQWLVSQLSAASPDYGHDS | 2.64 |
| FMEKRNQWLVSQLSAASPDQGHDS | 2.51 |
| FMEKRNQWLVSQLSAASPDVGHDS | 2.75 |
| FMEKRNQWLVSQLSAASPDWGHDS | 1.02 |
| FMEKRNQWLVSQLSAASPDMGHDS | 3.13 |
| FMEKRNQWLVSQLSAASPDLGHDS | 1.96 |
| FMEKRNQWLVSQLSAASPDNGHDS | 2.1 |
| FMEKRNQWLVSQLSAASPDSGHDS | 3.24 |
| FMEKRNQWLVSQLSAASPDRGHDS | 1.89 |
| FMEKRNQWLVSQLSAASPDPGHDS | 1.99 |

| Variant | protein stability index |
| --- | --- |
| FMEKRNQWLVSQLSAASPDIGHDS | 1.74 |
| FMEKRNQWLVSQLSAASPDTVHDS | 1.67 |
| FMEKRNQWLVSQLSAASPDTFHDS | 1.58 |
| FMEKRNQWLVSQLSAASPDTNHDS | 2.56 |
| FMEKRNQWLVSQLSAASPDTWHDS | 1.63 |
| FMEKRNQWLVSQLSAASPDTCHDS | 1.8 |
| FMEKRNQWLVSQLSAASPDTTHDS | 2.44 |
| FMEKRNQWLVSQLSAASPDTLHDS | 1.78 |
| FMEKRNQWLVSQLSAASPDTDHDS | 2.47 |
| FMEKRNQWLVSQLSAASPDTQHDS | 2.52 |
| FMEKRNQWLVSQLSAASPDTMHDS | 1.77 |
| FMEKRNQWLVSQLSAASPDTKHDS | 2.44 |
| FMEKRNQWLVSQLSAASPDTAHDS | 2.72 |
| FMEKRNQWLVSQLSAASPDTPHDS | 2.75 |
| FMEKRNQWLVSQLSAASPDTSHDS | 2.18 |
| FMEKRNQWLVSQLSAASPDTEHDS | 3.22 |
| FMEKRNQWLVSQLSAASPDTYHDS | 2.08 |
| FMEKRNQWLVSQLSAASPDTIHDS | 1.8 |
| FMEKRNQWLVSQLSAASPDTHHDS | 2.2 |
| FMEKRNQWLVSQLSAASPDTRHDS | 2.62 |
